In PMC3077247 (EMBO Reports, 2011):

T1: GST-fusion of the HECT domain of Nedd4, wild type (UniProt P46934-4)
T1 sequence: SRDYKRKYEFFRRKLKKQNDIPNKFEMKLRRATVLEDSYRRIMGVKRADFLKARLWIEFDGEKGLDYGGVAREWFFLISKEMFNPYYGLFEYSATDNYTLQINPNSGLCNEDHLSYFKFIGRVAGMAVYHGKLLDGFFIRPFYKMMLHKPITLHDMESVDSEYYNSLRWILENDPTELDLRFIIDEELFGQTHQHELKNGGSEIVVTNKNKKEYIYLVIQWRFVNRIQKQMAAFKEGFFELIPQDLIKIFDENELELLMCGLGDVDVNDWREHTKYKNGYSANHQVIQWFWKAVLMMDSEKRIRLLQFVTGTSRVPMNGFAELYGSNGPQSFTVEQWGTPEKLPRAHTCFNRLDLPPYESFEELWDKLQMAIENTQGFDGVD

T2: HECT domain of Nedd4, F707A (as used for fluorescence polarisation and SPR) (UniProt P46934-4, F707A)
T2 sequence: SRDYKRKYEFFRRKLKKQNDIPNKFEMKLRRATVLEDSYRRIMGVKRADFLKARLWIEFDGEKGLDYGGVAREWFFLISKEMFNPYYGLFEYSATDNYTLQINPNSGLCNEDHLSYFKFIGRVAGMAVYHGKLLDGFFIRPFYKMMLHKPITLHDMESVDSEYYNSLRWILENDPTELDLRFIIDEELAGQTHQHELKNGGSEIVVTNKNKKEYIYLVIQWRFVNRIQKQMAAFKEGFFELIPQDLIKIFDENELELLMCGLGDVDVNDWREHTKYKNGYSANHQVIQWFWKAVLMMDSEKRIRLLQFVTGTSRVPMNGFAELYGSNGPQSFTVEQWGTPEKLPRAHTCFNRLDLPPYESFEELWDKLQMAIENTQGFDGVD

T3: HECT domain of Nedd4, Y605A (as used for SPR) (UniProt P46934-4, Y605A)
T3 sequence: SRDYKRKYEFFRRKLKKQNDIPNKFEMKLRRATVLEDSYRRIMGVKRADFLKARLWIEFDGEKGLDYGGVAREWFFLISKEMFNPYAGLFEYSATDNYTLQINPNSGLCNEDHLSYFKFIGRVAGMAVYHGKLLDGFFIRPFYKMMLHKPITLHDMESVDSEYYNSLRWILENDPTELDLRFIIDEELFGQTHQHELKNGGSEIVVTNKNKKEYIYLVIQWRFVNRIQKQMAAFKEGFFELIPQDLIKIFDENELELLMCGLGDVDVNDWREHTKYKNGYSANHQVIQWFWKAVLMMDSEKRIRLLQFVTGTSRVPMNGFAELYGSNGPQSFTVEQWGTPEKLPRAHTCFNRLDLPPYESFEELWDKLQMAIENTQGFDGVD


Columns and labels:
[1] = molecular target: T1, GST-fusion of the HECT domain of Nedd4, …; experiment: pull-down
[2] = molecular target: T2, HECT domain of Nedd4, F707A (as used …); experiment: SPR
[3] = molecular target: T3, HECT domain of Nedd4, Y605A (as used …); experiment: SPR
ubiquitin (monomeric) = ubiquitin (monomeric) (UniProt P0CG48 1-76); experiment: fluorescence polarisation

binding result [1]	binding result [2]	binding result [3]	Kd (ubiquitin (monomeric)) [µM]	Binder
binds	binds	binds	–	E2 enzyme Ube2D3 (apo form) (enzyme) not shown
–	–	–	11	HECT domain of Nedd4, wild type (as used for crystals, fluorescence polarisation, SPR and supplementary Fig S1) (domain or fragment) SRDYKRKYEFFRRKLKKQNDIPNKFEMKLRRATVLEDSYRRIMGVKRADFLKARLWIEFDGEKGLDYGGVAREWFFLISKEMFNPYYGLFEYSATDNYTLQINPNSGLCNEDHLSYFKFIGRVAGMAVYHGKLLDGFFIRPFYKMMLHKPITLHDMESVDSEYYNSLRWILENDPTELDLRFIIDEELFGQTHQHELKNGGSEIVVTNKNKKEYIYLVIQWRFVNRIQKQMAAFKEGFFELIPQDLIKIFDENELELLMCGLGDVDVNDWREHTKYKNGYSANHQVIQWFWKAVLMMDSEKRIRLLQFVTGTSRVPMNGFAELYGSNGPQSFTVEQWGTPEKLPRAHTCFNRLDLPPYESFEELWDKLQMAIENTQGFDGVD
